The values that follow come from patent US20140017242A1, “ANTI-BRADYKININ B2 RECEPTOR (BKB2R) MONOCLONAL ANTIBODY” (Diamedica, Inc., priority 2010, published 2014).

The test system of assay [1] is RS-4;11. In words: MTT Cell Proliferation Assay, RS-4;11. It counts as cell-based, human. The conditions noted are these: 120 hours of exposure. The source says:
This Example describes characterization of the cytotoxic activity of herein described anti-BKB2R monoclonal antibodies against a panel of cancer cell lines. BxPC-3 is a human adenocarcinoma cell line originally isolated from the pancreas (pancreatic cancer) (ATCC # CRL-1687; Tan et al., Cancer Invest. 4: 15-23, 1986. PubMed: 3754176). MV-4-11 is a human biphenotypic B myelomonocytic leukemia (mixed-lineage leukemia, MLL-AF4) cell line originally isolated from the peripheral blood (ATCC # CRL-959; Lange et al., Blood 70: 192-199, 1987. PubMed: 3496132). Hep G2 is a human hepatocellular carcinoma cell line isolated from the liver (liver cancer) (ATCC # HB-8065; Aden et al., Nature 282: 615-616, 1979. PubMed: 233137). RS4;11 is a human acute lymphoblastic leukemia (mixed-lineage leukemia, MLL-AF4) cell line isolated from the bone marrow (ATTC # CRL-1873) Stong et al., Blood 65: 21-31, 1985. PubMed: 3917311). HT-29 is a human colorectal adenocarcinoma (ATTC # HTB-38) cell line isolated from the colon (colon cancer). Fogh et al., J. Natl. Cancer Inst. 58: 209-214, 1977. PubMed: 833871). NUGC-4 is a human stomach carcinoma isolated from the stomach paragastiric lymph node (JCRB # JCRB0834; Akiyama et al., Jpn. J. Surg., 18: 438-446, 1988). […]
The anti-proliferative activity of test compounds against the indicated cell lines was evaluated in vitro using the ATCC's MTT Cell Proliferation Assay (Catalog No. 30-1010K). After the 120 hour incubation with drug (e.g., anti-BKB2R mAb or cisplatin), cell proliferation was measured by addition of MTT reagent to each well and incubation for an additional 4 hrs. […] Optical absorbance (570 nm) of the test wells was measured and then quantitated relative to control wells that received no drug. Results were expressed as percent inhibition versus compound concentration and graphed, as shown in FIGS. 19-25, for cell lines BxPC-3, MV-4;11, HepG2, RS-4;11, HT-29, NUGC-4, and PC-3, respectively.

The subject of assay [2] is Wistar rats. In words: Acute effects on blood pressure in anesthetized Wistar rats. It counts as in vivo, rat. The conditions noted are these: single dose 0.5 mg/kg IV. The method, then:
Male Wistar rats (Charles River Laboratories, Boston, Mass.) were 7.0 to 7.6 weeks old, weighed an average of 245 grams, and were maintained on Purina 5001 rat chow ad libitum. Following one week of laboratory acclimatization, treatments femoral catheter surgery and drug administration were conducted within a one-day period with measurements commencing the same day and continued during an ongoing three-week follow-up period. Treatment groups were (1) 3H3H3 (anti-BKB2R) antibody (n=8), (2) 3H3H9 (anti-BKB2R) antibody (n=8), (3) 1F2G7 (anti-BKB2R) antibody, (n=3), (4) 5F12G1 (anti-BKB2R) antibody (n=8).
Rats were anesthetized with ketamine (30 mg/kg, IM) and Inactin (50 mg/kg, IP). Cannulae were implanted in the femoral artery for blood pressure measurements and in the femoral vein for drug administration. Arterial line was filled with saline with 10 UI/ml of heparin to keep the line patent over the experiment and avoid frequent flushing of the arterial line. After 15-20 minutes of equilibration period, and once the blood pressure was stable, a baseline blood pressure was recorded for 15 minutes; then, drugs were administered and its effects on blood pressure assessed. For the antibodies a single dose (0.5 mg/kg) was administered and blood pressure recorded for three hours. All drugs were diluted in saline or PBS to achieve a total volume of 1 ml/kg. Drugs were slowly administered, on a 40-sec period on average. Animals were kept at 37° C. during the experiment. At the end of the experiments, animals were euthanized and no blood or tissues were collected.
Baseline blood pressure, length of blood pressure response to drug, maximum blood pressure change and Area Under the Curve (AUC) for the blood pressure response. Blood pressure at 1, 2 and 3 h after infusion for the antibodies.

B1: 5F12G1: murine monoclonal anti-BKB2R antibody (IgG2b,κ), VH comprising SEQ ID NO:1, VL comprising SEQ ID NO:2 (antibody, listed as Mus musculus, V domains shown)
VH: EVKLEESGGGLVQPGGSMKLSCVVSGFTFSDYWMSWVRHSPEMGLEWVAEIRLKSDNYATHYAESVKGRFTISRDDSKSRLYLQINSLRGEDTGIYYCTRDYYAMEYWGQGTSVTVSS
VL: DVVMTQTPLSLPVSLGDQASISCRSSQTIVHSNGKTYLEWYLQKPGQSPKLLIYKVSNRFSGVPDRFSGSGSGTEFTLKISRVETEDLGVYYCFQASHVPYTFGGGTKLEIK
On to B1, for which the “EC 50 Values (ng/ml) RS-4;11” value in assay [1] came to 15000 ng/mL. Also, the “Peak Blood Pressure Response (mm HG)” value in assay [2] is 57 +/− 4 mm HG. In addition, the “Length (sec) of Blood Pressure Response” value in assay [2] (until blood pressure returned to baseline) was found to be 168 ± 29 s. In addition, in assay [2] (baseline 109±3 mm Hg), the “blood pressure at one hour after administration” value was determined as 95±3 mm Hg, the “blood pressure at three hours after administration” value worked out at 95±3 mm Hg and the “blood pressure at two hours after administration” value is reported as 94±3 mm Hg.
